From the supplement of paper PMC6755084

Each sequence was assayed on F1*sub RNA substrate (template-directed ligation) (assay: fraction ligated after 30 min (ligated reads / total reads); higher = more ligase activity; sequences stand for … in GAGACCGCAACTGAAAAGTTGT…AGTTCTGCACGTAGAAGCAAAAGGC). Settings: 42 °C.
How it was run: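 The ligase ribozyme variants were produced by PCR amplification of oligo-pool templates, T7 transcription and purification on gel. Their ligated and unligated forms were gel-separated, then reverse transcribed with barcoded primers before MiSeq sequencing. Core bases were filtered at a quality of ≥20, and fraction ligated per variant was ligated reads over total reads.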
With “TATCACTTGCGAAGACACTTTGGATGGGTTG [3d1625]” the fraction ligated was 0.824. “TATCACTTTCGTAAACACTTTGGATGGTTGA [3d1526]” was tested, and the fraction ligated was 0.0497. “TATCACTTGTCAAGACACTTTGGATGGGTTGA [2d194]” was tested, and the fraction ligated was 0.809. Work on “TATCATGTCGTAAACACTTTGGATGGGTTGA [3d1128]” yielded a fraction ligated of 0.765. Sequence TACACTGCGTAAGACACTTTGGATGGGTTGA [3d568] has a fraction ligated of 0.177. Work on TATACTTGTCGTAGACACTTTGGAGGGTTGA [3d879] yielded a fraction ligated of 0.0209. TATACTTGTCGTAAGAACTTTGGATGGGTTG [3d910] showed a fraction ligated of 0.724. Sequence TACCTTGTCGTAAGACATTTGGATGGGTTGA [3d539] has a fraction ligated of 0.749. For “TATCACTGTGTAAGACACTTTGATGGGTTGA [3d1352]”, the fraction ligated was 0.355. TACACTTTCGTAAGAACTTTGGATGGGTTGA [3d591] was tested, and the fraction ligated was 0.0829. With CACTTGTCGTAAGACACTTTGGATGGGTTGA [3d1] the fraction ligated was 0.637. For ATCACTTGTCGTAAACACTTGGATGGGTTGA [3d214], the fraction ligated was 0.742. In the case of “TATCACTTTCGTAAGACACTTTGGAGGGTTG [3d1580]”, the fraction ligated is reported as 0.0276. Sequence TACACTTGTCGTAAGACACTTGGTGGGTTGA [3d716] has a fraction ligated of 0.0903. ATCACTTGCGTAAGACACTTGGATGGGTTGA [3d149] was tested, and the fraction ligated was 0.726. “TATCACTTGTCGTAAGACACTTTTGGGTTGA [3d2255]” showed a fraction ligated of 0.0315. Sequence “TATCACTTGCGTAGACACTTTGGAGGGTTGA [3d1635]” has a fraction ligated of 0.105. TTCACTGTCGAAGACACTTTGGATGGGTTGA [3d341] showed a fraction ligated of 0.77. Sequence ATCACTTGCGTAAGACACTTTGGAGGGTTGA [3d152] has a fraction ligated of 0.061. Work on “TATCACTTGTCGTAAACCTTGGATGGGTTGA [3d2067]” yielded a fraction ligated of 0.783. Sequence TAACTTGTCGTAAGACATTTGGATGGGTTGA [3d520] has a fraction ligated of 0.38. With TACATTGTCGTAAGCACTTTGGATGGGTTGA [3d555] the fraction ligated was 0.041. In the case of ATCACTTGCGTAAACACTTTGGATGGGTTGA [3d144], the fraction ligated is reported as 0.758. In the case of TACACTTGTCGTAAACATTTGGATGGGTTGA [3d674], the fraction ligated is reported as 0.457. In the case of TTCCTTGTCGTAAGACACTTTGGATGGTTGA [3d314], the fraction ligated is reported as 0.175. In the case of ATCCTGTCGTAAGACACTTTGGATGGGTTGA [3d67], the fraction ligated is reported as 0.683. In the case of “TATCACTTGTCGTAAGCATTTGGATGGGTTGA [2d246]”, the fraction ligated is reported as 0.849. For “TATCACTTTCGTAAGACACTTGGATGGTTGA [3d1565]”, the fraction ligated was 0.134. Work on “TATCATTGTCTAGACACTTTGGATGGGTTGA [3d1188]” yielded a fraction ligated of 0.765. In the case of TACACTTGTCGTAAGACATTGGATGGGTTGA [3d707], the fraction ligated is reported as 0.239. With “TATCACTTGTCAAGCACTTTGGATGGGTTGA [3d1812]” the fraction ligated was 0.785. “TATCACTTGTGTAAGACATTTGGATGGGTTG [3d1785]” showed a fraction ligated of 0.838. “TATCACTTGTCGTAGACACTTTGTGGGTTGA [3d2043]” showed a fraction ligated of 0.0334. ATCTTGTCGTAAGACACTTTGGATGGGTTGA [3d46] showed a fraction ligated of 0.774. Work on “TATCACTTGTGTAAGAACTTTGGATGGTTGA [3d1769]” yielded a fraction ligated of 0.0688. For “TATCACTTGTCGTAGACACTTTGGATGGGTTA [2d232]”, the fraction ligated was 0.825. Sequence “TATCACTTGTCGTAGAACTTTGGATGGTTGA [3d2018]” has a fraction ligated of 0.206. “TATCACTTGTGTAAGAACTTTGATGGGTTGA [3d1766]” showed a fraction ligated of 0.834. Work on “TATCACTTGTCGTAAGACACTTGGATGGGTTA [2d281]” yielded a fraction ligated of 0.756. Sequence “TATCACTTGTCGTAAGACACTTTATGGGTTG [3d2259]” has a fraction ligated of 0.0149. With TACACTTGTCGAAGACACTTTGGATGGGTTG [3d658] the fraction ligated was 0.593. In the case of TATACTTGTCGTAAGAACTTTGGATGGTTGA [3d908], the fraction ligated is reported as 0.0441. “TATCCTTGTCGTAAGACATTGGATGGGTTGA [3d1090]” was tested, and the fraction ligated was 0.772. ATCACTTGTGTAAGACACTTTGGATGGGTTA [3d169] showed a fraction ligated of 0.598. “TATCCTTGTCGTAAACATTTGGATGGGTTGA [3d1057]” was tested, and the fraction ligated was 0.771. ATCCTTGTCGTAAGACACTTTGGATGGGTTG [3d85] showed a fraction ligated of 0.716.
